Test results from patent publication US20250163127A1.

Key:
PD-L1 (human) [1] = test: flow cytometry, cells expressing PD-L1
CTLA-4 (human) [2] = test: flow cytometry, cells expressing CTLA-4
CD28 (human) [3] = target: CD28 (human) (UniProt P10747); test: flow cytometry, cells expressing CD28
CTLA-4 (human) [4] = test: flow cytometry, CHO cells expressing CTLA4
Target sequence in this assay (chain, as listed by the source): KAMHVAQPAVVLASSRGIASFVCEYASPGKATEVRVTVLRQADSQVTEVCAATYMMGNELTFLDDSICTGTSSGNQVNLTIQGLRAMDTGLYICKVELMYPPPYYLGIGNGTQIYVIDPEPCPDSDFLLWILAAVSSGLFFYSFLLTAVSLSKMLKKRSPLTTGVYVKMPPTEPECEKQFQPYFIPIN

PD-L1 (human) [5] = test: flow cytometry, CHO cells expressing PD-L1
Target sequence in this assay (chain, as listed by the source): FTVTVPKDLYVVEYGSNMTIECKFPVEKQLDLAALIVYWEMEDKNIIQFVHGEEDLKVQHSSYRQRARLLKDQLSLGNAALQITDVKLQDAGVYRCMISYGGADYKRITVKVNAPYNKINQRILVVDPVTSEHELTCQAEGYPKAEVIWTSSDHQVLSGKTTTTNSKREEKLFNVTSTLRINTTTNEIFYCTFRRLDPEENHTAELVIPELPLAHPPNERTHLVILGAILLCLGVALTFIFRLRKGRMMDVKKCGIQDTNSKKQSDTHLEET

CD28 (human) [6] = target: CD28 (human) (UniProt P10747); test: flow cytometry, Jurkat cells (CD28)

| Substance | MFI (CD28 (human) [3]) | MFI at 33.3 nM (CTLA-4 (human) [4]) | MFI at 33.3 nM (PD-L1 (human) [5]) | MFI at 33.3 nM (CD28 (human) [6]) | other results |
| --- | --- | --- | --- | --- | --- |
| variant CD80 A91G (Fc fusion) |  |  |  |  | MFI (PD-L1 (human) [1]): 85 MFI; MFI (CTLA-4 (human) [2]): 200 MFI |
| variant CD80 A91G/S103P (Fc fusion) | 39 MFI |  |  |  | MFI (PD-L1 (human) [1]): 9 MFI |
| variant CD80 E35D/D46E/M47V/A71D/D90G (Fc fusion) |  | 275000 MFI | 32400 MFI |  |  |
| variant CD80 E35D/M38T/M43V/M47V/N48R/L85Q (Fc fusion) |  | 204000 MFI | 21800 MFI |  |  |
| variant CD80 E35D/M42V/M47V/E52D/L85Q (Fc fusion) |  | 226000 MFI | 11900 MFI | 1290 MFI | Fold change to WT CD80 (CD28 (human) [6]): 0.07 fold; Fold change to WT CD80 (CTLA-4 (human) [4]): 1.44 fold |
| variant CD80 E35D/M43I/M47V/K89N (Fc fusion) |  | 278000 MFI | 19200 MFI |  |  |
| variant CD80 E35D/M47V/A71G (Fc fusion) |  |  | 36200 MFI | 6360 MFI |  |
| variant CD80 E35D/M47V/N48T/L85Q (Fc fusion) |  |  | 35500 MFI | 692 MFI |  |
| variant CD80 E35D/T41S/M43I/M47L/A71G (Fc fusion) |  | 209000 MFI |  | 3100 MFI |  |
| variant CD80 E35D/T41S/M43I/M47V/A71G (Fc fusion) |  |  | 44400 MFI | 2840 MFI |  |
| variant CD80 I67T/L70Q/A91G/I118V/T120S (Fc fusion) | 98 MFI |  |  |  | parental ratio (CD28 (human) [3]): 1.03; MFI (PD-L1 (human) [1]): 5 MFI; parental ratio (PD-L1 (human) [1]): 0.08; MFI (CTLA-4 (human) [2]): 160 MFI; parental ratio (CTLA-4 (human) [2]): 0.77 |
| variant CD80 K89E/T130A (Fc fusion) |  |  |  |  | MFI (CTLA-4 (human) [2]): 148 MFI |
| variant CD80 L65H/D90G/T110A/F116L (Fc fusion) | 33 MFI |  |  |  | MFI (CTLA-4 (human) [2]): 121 MFI |
| variant CD80 L70Q/A91G/N144D (Fc fusion) |  |  |  |  | MFI (PD-L1 (human) [1]): 6 MFI |
| variant CD80 M38T/L70Q/E77G/A91G/I118V/T120S/T130A/N152T (Fc fusion) | 61 MFI |  |  |  |  |
| variant CD80 Q27H/E35D/D46V/M47L/A71G (Fc fusion) |  |  |  | 10400 MFI |  |
| variant CD80 R29H/E52G/D90N/I118V/T120S/T130A (Fc fusion) | 66 MFI |  |  |  | MFI (CTLA-4 (human) [2]): 141 MFI |
| variant CD80 R29H/E52G/L70R/E88G/A91G/T130A (Fc fusion) | 100 MFI |  |  |  | MFI (PD-L1 (human) [1]): 5 MFI; parental ratio (PD-L1 (human) [1]): 0.08; MFI (CTLA-4 (human) [2]): 119 MFI; parental ratio (CTLA-4 (human) [2]): 0.57 |
| variant CD80 T28S/L70Q/A91G/E95K/I118V/T120S/I126V/T130A/K169E (Fc fusion) | 32 MFI |  |  |  | parental ratio (CD28 (human) [3]): 0.34; MFI (PD-L1 (human) [1]): 6 MFI; parental ratio (PD-L1 (human) [1]): 0.08; MFI (CTLA-4 (human) [2]): 65 MFI; parental ratio (CTLA-4 (human) [2]): 0.31 |
| variant CD80 V20L/L70Q/A91S/I118V/T120S/T130A (Fc fusion) | 105 MFI |  |  |  | MFI (PD-L1 (human) [1]): 9 MFI; parental ratio (PD-L1 (human) [1]): 0.13; MFI (CTLA-4 (human) [2]): 200 MFI; parental ratio (CTLA-4 (human) [2]): 0.96 |
| variant CD80 V22D/E35D/M47L/L85Q (Fc fusion) |  | 256000 MFI |  | 542 MFI |  |
| variant CD80 V22L/Q27H/E35D/M47I/A71G (Fc fusion) |  | 152000 MFI | 43800 MFI | 7270 MFI | Fold change to WT CD80 (CD28 (human) [6]): 0.4 fold; Fold change to WT CD80 (CTLA-4 (human) [4]): 0.96 fold |
| variant CD80 Y31H/T41G/M43L/L70Q/A91G/I118V/T120S/I126V/T130A (Fc fusion) |  |  |  |  | MFI (PD-L1 (human) [1]): 6 MFI |

Further lines, with some results ahead:

| MFI (CD28 (human) [3]) | MFI at 33.3 nM (CTLA-4 (human) [4]) | MFI at 33.3 nM (PD-L1 (human) [5]) | MFI at 33.3 nM (CD28 (human) [6]) | Substance | other results |
| --- | --- | --- | --- | --- | --- |
| 26 MFI |  |  |  | variant CD80 E24G/L25P/L70Q/A91G/I118V/T120S/N152T (Fc fusion) | MFI (CTLA-4 (human) [2]): 38 MFI |
|  | 184000 MFI | 34100 MFI |  | variant CD80 E35D/A71G (Fc fusion) |  |
|  |  | 29800 MFI | 15500 MFI | variant CD80 E35D/M47I/Y87Q/K89E (Fc fusion) |  |
|  | 212000 MFI | 37100 MFI | 6240 MFI | variant CD80 E35D/M47V/A71G/E88D (Fc fusion) | Fold change to WT CD80 (CD28 (human) [6]): 0.35 fold; Fold change to WT CD80 (PD-L1 (human) [5]): 3.13 fold |
|  | 226000 MFI | 693 MFI |  | variant CD80 E35D/M47V/T62A/A71D/K93E (Fc fusion) |  |
|  | 208000 MFI |  |  | variant CD80 E35D/T41S/M43I/A71G/D90G (Fc fusion) |  |
|  | 231000 MFI | 52400 MFI | 3540 MFI | variant CD80 H18Y/A26E/E35D/M47L/L85Q/D90G (Fc fusion) | Fold change to WT CD80 (CD28 (human) [6]): 0.2 fold; Fold change to WT CD80 (CTLA-4 (human) [4]): 1.47 fold |
|  | 261000 MFI |  |  | variant CD80 H18Y/E35D/N48K (Fc fusion) |  |
|  | 205000 MFI | 43900 MFI |  | variant CD80 I30V/E35D/M47V/A71G/A91V (Fc fusion) |  |
| 8 MFI |  |  |  | variant CD80 K36E/I67T/L70Q/A91G/I118V/T120S/T130A/N152T (Fc fusion) |  |
| 5 MFI |  |  |  | variant CD80 M38V/T41D/M43I/W50G/D76G/V83A/K89E/I118V/T120S/I126V/T130A (Fc fusion) |  |
|  | 2680 MFI | 21400 MFI |  | variant CD80 Q33R/E35D/M47V/N48K/L85M/F92L (Fc fusion) |  |
|  |  |  | 527 MFI | variant CD80 V22D/E35D/M47L/L70M/L97Q (Fc fusion) |  |
